According to patent US20230242635A1 (published 2023):

Columns and labels:
[1] = biological target: canine FcRn complex (FcRn-α subunit and β-microglobulin), biotin labeled by BirA, captured on SA chip (Example 5) (canine); test: SPR (Biacore), biotinylated FcRn captured on SA chip, IgG flowed, pH 6, 15 C
[2] = biological target: canine FcRn complex (FcRn-α subunit and β-microglobulin), biotin labeled by BirA, captured on SA chip (Example 5) (canine); test: SPR (Biacore), biotinylated FcRn captured on SA chip, IgG flowed, pH 7.4, 15 C
[3] = biological target: canine FcRn complex (FcRn-α subunit and β-microglobulin) with c-terminal 6x His + BAP tag, amine-immobilized (Example 3) (canine); test: SPR (Biacore), FcRn amine-coupled on CM5, IgG flowed, pH 6, 15 C
[4] = biological target: IL-31 (target protein of mAb1, immobilized); test: cell-based or functional assay
[5] = biological target: IL-31 (target protein of mAb1, immobilized); test: SPR (Biacore T200), target amine-coupled on CM5, antibody flowed, 15 C, 1:1 model
[6] = biological target: canine FcRn complex (FcRn-α subunit and β-microglobulin) with c-terminal 6x His + BAP tag, amine-immobilized (Example 3) (canine); test: SPR (Biacore), FcRn amine-coupled on CM5, IgG flowed, pH 7.2, 15 C
[7] = biological target: T1, canine FcRn complex (FcRn-α subunit and β-microglobulin), biotin labeled by BirA, captured on SA chip … (canine, UniProt A0A8I3PFR8 25-296, biotin label by BirA enzymatic biotinylation (BAP tag)); test: SPR (Biacore), biotinylated FcRn captured on SA chip, IgG flowed, pH 7.4, 15 C
T1 sequence (A0A8I3PFR8 entry or part of it, one chain of several): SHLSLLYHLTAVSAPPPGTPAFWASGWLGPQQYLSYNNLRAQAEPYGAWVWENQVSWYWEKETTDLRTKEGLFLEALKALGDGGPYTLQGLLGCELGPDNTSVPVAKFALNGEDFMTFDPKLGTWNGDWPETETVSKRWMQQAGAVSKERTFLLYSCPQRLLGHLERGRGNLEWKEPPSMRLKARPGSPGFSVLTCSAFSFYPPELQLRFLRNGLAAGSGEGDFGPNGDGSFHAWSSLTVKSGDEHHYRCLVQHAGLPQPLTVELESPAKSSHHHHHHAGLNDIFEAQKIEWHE

[8] = biological target: T1, canine FcRn complex (FcRn-α subunit and …); test: SPR (Biacore), biotinylated FcRn captured on SA chip, IgG flowed, pH 6, 15 C

Kd [1] [nM]	Kd [2] [nM]	Kd [3] [nM]	IC50 (cell based potency assay) [4] [nM]	Kd [5] [nM]	Kd [6] [nM]	Kd [7] [nM]	Kd [8] [nM]	Binder
1	83900	–	–	–	–	–	–	caninized anti-IL31 antibody 11E12 (mAb1 of Table 5), canine IgGB, N434H (antibody, part only; not given: light chain, part only) heavy: EVQLVQSGAEVKKPGASVKVSCKTSGYTFKYYDINWVRQAPGAGLDWMGWIFPGDGGTKYNETFKGRVTLTADTSTSTAYMELSSLRAGDIAVYYCARGGTSVIRDAMDYWGQGTLVTVSSASTTAPSVFPLAPSCGSTSGSTVALACLVSGYFPEPVTVSWNSGSLTSGVHTFPSVLQSSGLYSLSSMVTVPSSRWPSETFTCNVAHPASKTKVDKPVPKRENGRVPRPPDCPKCPAPEMLGGPSVFIFPPKPKDTLLIARTPEVTCVVVDLDPEDPEVQISWFVDGKQMQTAKTQPREEQFNGTYRVVSVLPIGHQDWLKGKQFTCKVNNKALPSPIERTISKARGQAHQPSVYVLPPSREELSKNTVSLTCLIKDFFPPDIDVEWQSNGQQEPESKYRTTPPQLDEDGSYFLYSKLSVDKSRWQRGDTFICAVMHEALHHHYTQESLSHSPGK
19.9	18700	15 to 24.4	1.1	0.483	–	–	–	caninized anti-IL31 antibody 34D03 (mAb1), canine IgGB (65), wild-type (antibody) heavy: EVQLVESGGDLVKPGGSLRLSCVASGFTFSNYGMSWVRQAPGKGLQWVATISYGGSYTYYPDNIKGRFTISRDNAKNTLYLQMNSLRAEDTAMYYCVRGYGYDTMDYWGQGTLVTVSSASTTAPSVFPLAPSCGSTSGSTVALACLVSGYFPEPVTVSWNSGSLTSGVHTFPSVLQSSGLYSLSSMVTVPSSRWPSETFTCNVAHPASKTKVDKPVPKRENGRVPRPPDCPKCPAPEMLGGPSVFIFPPKPKDTLLIARTPEVTCVVVDLDPEDPEVQISWFVDGKQMQTAKTQPREEQFNGTYRVVSVLPIGHQDWLKGKQFTCKVNNKALPSPIERTISKARGQAHQPSVYVLPPSREELSKNTVSLTCLIKDFFPPDIDVEWQSNGQQEPESKYRTTPPQLDEDGSYFLYSKLSVDKSRWQRGDTFICAVMHEALHNHYTQESLSHSPGK VL: EIVMTQSPASLSLSQEEKVTITCKASQSVSFAGTGLMHWYQQKPGQAPKLLIYRASNLEAGVPSRFSGSGSGTDFSFTISSLEPEDVAVYYCQQSREYPWTFGQGTKLEIK
6.45	–	0.7 to 1.3	0.99	0.373	5000	–	–	caninized anti-IL31 antibody 34D03 (mAb1), canine IgGB (65), N434H (antibody) heavy: EVQLVESGGDLVKPGGSLRLSCVASGFTFSNYGMSWVRQAPGKGLQWVATISYGGSYTYYPDNIKGRFTISRDNAKNTLYLQMNSLRAEDTAMYYCVRGYGYDTMDYWGQGTLVTVSSASTTAPSVFPLAPSCGSTSGSTVALACLVSGYFPEPVTVSWNSGSLTSGVHTFPSVLQSSGLYSLSSMVTVPSSRWPSETFTCNVAHPASKTKVDKPVPKRENGRVPRPPDCPKCPAPEMLGGPSVFIFPPKPKDTLLIARTPEVTCVVVDLDPEDPEVQISWFVDGKQMQTAKTQPREEQFNGTYRVVSVLPIGHQDWLKGKQFTCKVNNKALPSPIERTISKARGQAHQPSVYVLPPSREELSKNTVSLTCLIKDFFPPDIDVEWQSNGQQEPESKYRTTPPQLDEDGSYFLYSKLSVDKSRWQRGDTFICAVMHEALHHHYTQESLSHSPGK VL: EIVMTQSPASLSLSQEEKVTITCKASQSVSFAGTGLMHWYQQKPGQAPKLLIYRASNLEAGVPSRFSGSGSGTDFSFTISSLEPEDVAVYYCQQSREYPWTFGQGTKLEIK
–	–	–	–	–	–	19600	77.1	caninized anti-IL31 antibody 34D03 (mAb1), canine IgGB, N434I (antibody) chain 1: EVQLVESGGDLVKPGGSLRLSCVASGFTFSNYGMSWVRQAPGKGLQWVATISYGGSYTYYPDNIKGRFTISRDNAKNTLYLQMNSLRAEDTAMYYCVRGYGYDTMDYWGQGTLVTVSSASTTAPSVFPLAPSCGSTSGSTVALACLVSGYFPEPVTVSWNSGSLTSGVHTFPSVLQSSGLYSLSSMVTVPSSRWPSETFTCNVAHPASKTKVDKPVPKRENGRVPRPPDCPKCPAPEMLGGPSVFIFPPKPKDTLLIARTPEVTCVVVDLDPEDPEVQISWFVDGKQMQTAKTQPREEQFNGTYRVVSVLPIGHQDWLKGKQFTCKVNNKALPSPIERTISKARGQAHQPSVYVLPPSREELSKNTVSLTCLIKDFFPPDIDVEWQSNGQQEPESKYRTTPPQLDEDGSYFLYSKLSVDKSRWQRGDTFICAVMHEALHIHYTQESLSHSPGK chain 2: EIVMTQSPASLSLSQEEKVTITCKASQSVSFAGTGLMHWYQQKPGQAPKLLIYRASNLEAGVPSRFSGSGSGTDFSFTISSLEPEDVAVYYCQQSREYPWTFGQGTKLEIK
–	–	–	–	–	–	7.86	9.11	caninized anti-IL31 antibody 34D03 (mAb1), canine IgGB, N434K (antibody) chain 1: EVQLVESGGDLVKPGGSLRLSCVASGFTFSNYGMSWVRQAPGKGLQWVATISYGGSYTYYPDNIKGRFTISRDNAKNTLYLQMNSLRAEDTAMYYCVRGYGYDTMDYWGQGTLVTVSSASTTAPSVFPLAPSCGSTSGSTVALACLVSGYFPEPVTVSWNSGSLTSGVHTFPSVLQSSGLYSLSSMVTVPSSRWPSETFTCNVAHPASKTKVDKPVPKRENGRVPRPPDCPKCPAPEMLGGPSVFIFPPKPKDTLLIARTPEVTCVVVDLDPEDPEVQISWFVDGKQMQTAKTQPREEQFNGTYRVVSVLPIGHQDWLKGKQFTCKVNNKALPSPIERTISKARGQAHQPSVYVLPPSREELSKNTVSLTCLIKDFFPPDIDVEWQSNGQQEPESKYRTTPPQLDEDGSYFLYSKLSVDKSRWQRGDTFICAVMHEALHKHYTQESLSHSPGK chain 2: EIVMTQSPASLSLSQEEKVTITCKASQSVSFAGTGLMHWYQQKPGQAPKLLIYRASNLEAGVPSRFSGSGSGTDFSFTISSLEPEDVAVYYCQQSREYPWTFGQGTKLEIK
–	–	–	–	–	–	26000	118	caninized anti-IL31 antibody 34D03 (mAb1), canine IgGB, N434G (antibody) chain 1: EVQLVESGGDLVKPGGSLRLSCVASGFTFSNYGMSWVRQAPGKGLQWVATISYGGSYTYYPDNIKGRFTISRDNAKNTLYLQMNSLRAEDTAMYYCVRGYGYDTMDYWGQGTLVTVSSASTTAPSVFPLAPSCGSTSGSTVALACLVSGYFPEPVTVSWNSGSLTSGVHTFPSVLQSSGLYSLSSMVTVPSSRWPSETFTCNVAHPASKTKVDKPVPKRENGRVPRPPDCPKCPAPEMLGGPSVFIFPPKPKDTLLIARTPEVTCVVVDLDPEDPEVQISWFVDGKQMQTAKTQPREEQFNGTYRVVSVLPIGHQDWLKGKQFTCKVNNKALPSPIERTISKARGQAHQPSVYVLPPSREELSKNTVSLTCLIKDFFPPDIDVEWQSNGQQEPESKYRTTPPQLDEDGSYFLYSKLSVDKSRWQRGDTFICAVMHEALHGHYTQESLSHSPGK chain 2: EIVMTQSPASLSLSQEEKVTITCKASQSVSFAGTGLMHWYQQKPGQAPKLLIYRASNLEAGVPSRFSGSGSGTDFSFTISSLEPEDVAVYYCQQSREYPWTFGQGTKLEIK
–	–	–	–	–	–	997	14.3	caninized anti-IL31 antibody 34D03 (mAb1), canine IgGB, N434L (antibody) chain 1: EVQLVESGGDLVKPGGSLRLSCVASGFTFSNYGMSWVRQAPGKGLQWVATISYGGSYTYYPDNIKGRFTISRDNAKNTLYLQMNSLRAEDTAMYYCVRGYGYDTMDYWGQGTLVTVSSASTTAPSVFPLAPSCGSTSGSTVALACLVSGYFPEPVTVSWNSGSLTSGVHTFPSVLQSSGLYSLSSMVTVPSSRWPSETFTCNVAHPASKTKVDKPVPKRENGRVPRPPDCPKCPAPEMLGGPSVFIFPPKPKDTLLIARTPEVTCVVVDLDPEDPEVQISWFVDGKQMQTAKTQPREEQFNGTYRVVSVLPIGHQDWLKGKQFTCKVNNKALPSPIERTISKARGQAHQPSVYVLPPSREELSKNTVSLTCLIKDFFPPDIDVEWQSNGQQEPESKYRTTPPQLDEDGSYFLYSKLSVDKSRWQRGDTFICAVMHEALHLHYTQESLSHSPGK chain 2: EIVMTQSPASLSLSQEEKVTITCKASQSVSFAGTGLMHWYQQKPGQAPKLLIYRASNLEAGVPSRFSGSGSGTDFSFTISSLEPEDVAVYYCQQSREYPWTFGQGTKLEIK
